Measurements: patent US20250215403A1, “Compositions and Methods for Cardiac Tissue Regeneration” (Temple University - Of The Commonwealth System Of Higher …, priority 2022, published 2025)

Columns and labels:
cardiomyocytes (CM) [1] = experiment: CM division lineage tracing in α-MHC-MADM mice post-MI; format: in vivo, mouse
Experimental: All animal procedures were performed under protocols approved by the Temple University Animal Care and Use Committee. Male and female C57BL6 mice were used. Different modRNAs (100 μg/heart) were injected directly into the myocardium in open chest surgery. Three to ten animals used for each experiment. For mice survival, C57BL6 mice (10-12-weeks-old) treated with Luc or PSAT1 modRNAs (n=10) post induction of MI and were followed for the indicated time. Deaths were monitored and documented over time. Tamoxifen-inducible CM-restricted MADM mice (α-MHC-MADM mice) mice were generated by crossing MADM mice (Jackson laboratory) to […].^Tg(Myh6-cre/Esr1*) 1Jmk/J (Cat no. 005657) mice to get α-MHC-MADM mice (Yuko, A. E., et al., 2021, Redox Biology, 47:102162). Tamoxifen (Sigma-Aldrich) was dissolved in sesame oil at 10 mg/ml as stock solution. To induce Cre activation, tamoxifen was administered to mice by intraperitoneal (IP) injection five times (48 h interval between administrations) at 40 mg/kg body weight for adult mice (Yuko, A. E., et al., 2021, Redox Biology, 47:102162). The tissues were harvested at mentioned time for analysis.
To analyze the cardiomyocyte division in vivo post-MI, cardiomyocyte specific mosaic analysis with double markers (MADM) mice, generated as described previously, were used (Yuko, A. E., et al., 2021, Redox Biology, 47:102162). The CM-specific transgenic mice were generated by crossing MADM mice (Jackson laboratory) to B6.FVB (129)-A1cf.^Tg(Myh6-cre/Esr1*) 1 Jmk/J (Cat no. 005657) mice to get α-MHC-MADM mice. In the MADM system, because of interchromosomal Cre-loxP recombination after S phase of the cell cycle, the daughter cells will get labeled (single colored) with either GFP (Green) or RFP (Red). The MADM single-labeling can only be attained by end of the cell cycle through cytokinesis. The inducible MADM system warrants temporal control of recombination and offers direct evidence for cell division. […]

cardiomyocytes (CM) [2] = experiment: Mouse MI model: immunostaining of heart sections for CM cell cycle markers (ki67, pH3, BrdU, Aurora B); format: in vivo; settings: seven days post-MI
Experimental: All surgical and experimental procedures with mice were performed in accordance with protocols approved by Institutional Animal Care and Use Committees at Temple University Animal Care and Use Committee (IACUC). C57BL6 or CM-specific MADM mice (8-12-weeks-old) were anesthetized with isoflurane. MI was induced by permanent ligation of the LAD, as previously described (Garikipati, V. N. S., et al., 2019, Nature Communications, 10:4317). Briefly, the left thoracic region was shaved and sterilized. After intubation, the heart was exposed through a left thoracotomy. A suture was placed to ligate the LAD. The thoracotomy and skin were sutured closed in layers. Excess air was removed from the thoracic cavity, and the mouse was removed from ventilation when normal breathing was established. In order to determine the effect of modRNA on cardiovascular outcome after MI, modRNAs (100 μg/heart) were injected into the infarct zone immediately after LAD ligation (Magadum A., et al., Circulation. 2020, 141 (15): 1249-1265). For examination of heart histology, hearts were collected at the end of each study, quickly washed in PBS, weighed, and fixed in 4% PFA for cryo-sectioning and immunostainings. In all experiments, the surgeon was blinded to the treatment group. For assessment of heart histology, hearts were collected at the end of each study. The hearts were excised, briefly washed in PBS, perfused with perfusion buffer, weighed and fixed in 4% PFA at 4° C. overnight. The heart blocks were transverse sectioned at 6-8 μm using cryostat. The heart sections were further processed for histological evaluation using immunostaining (see below) or histological scar staining using Masson's trichrome staining kit (Sigma) according to standard procedures. Measuring the ratio of heart weight to body weight was done using a scale. This ratio was calculated as the heart tissue weight relative to the mouse total body weight in grams (g).
Mice were injected with AAV9-GFP or AAV9-YAP1-shRNA (GeneCopoeia) through retro-orbital injection 7 days before LAD. A total of 5×10^11 viral genomes (50 μl total volume delivered) was injected per mouse. The level of YAP1 inhibition was determined at the mRNA level by qPCR 14 days post injection.
Mice hearts were harvested, weighed, and fixed in 4% PFA/PBS overnight on shaker and then washed with PBS for 1 hour and incubated in 30% sucrose/PBS at 4° C. for 12-18 hours. Hearts were then fixed in OCT and frozen at −80° C. (Magadum A., et al., Circulation. 2020, 141 (15): 1249-1265). Transverse heart sections (6-8 μm) were made using a cryostat. Frozen sections were rehydrated in PBS for 5-10 min followed by permeabilization with PBS with 0.1% Triton™ X100 (PBST) for 7-8 min. Heart sections were then treated with 3% H2O2 for 5 min and washed (3×5 min) with PBST. The samples were then blocked with PBS+10% Donkey normal serum+0.1% Triton™ X100 (PBSST) for 1 hour at room temperature. Primary antibodies (see complete list of primary antibodies used for this Example in Table 2 below) diluted in PBST were added and incubated overnight at 4° C. Slides were washed with PBST (3×5 min) followed by incubation with a secondary antibody (Invitrogen, 1:200) diluted in PBST for 90-120 min at room temperature. The samples were further washed with PBST (3×5 min) and stained with DAPI or Hoechst 33342 (1 μg/ml) diluted in PBST for 7 min. After being washed with PBST (3×7 min) and tap water (1×5 min) slides were mounted with mounting medium (VECTASHIELD®) for imaging (Magadum A., et al., Circulation. 2020, 141 (15): 1249-1265). Stained slides were stored at 4° C. All staining was performed on 4-8 hearts/group, with 2-3 sections/heart. For immunostaining with wheat germ agglutinin (WGA) for CM size quantification, images were captured at 40× magnification, and ImageJ was used to determine the area of each cell. […]

B1: PSAT1 modRNA: modified mRNA with N1-methylpseudouridine, transcribed in vitro, encoding phosphoserine aminotransferase 1 (ORF SEQ ID NO: 1, RNA SEQ ID NO: 2) (nucleic acid)
chain: AUGGAAGCCACCAAGCAAGUGGUUAACUUUGGGCCCGGGCCUGCCAAGCUGCCACACUCGGUAUUGUUGGAGAUCCAGAAGCAGCUACUAGACUACAGAGGACUCGGCAUCAGUGUGCUCGAAAUGAGUCACAGGUCAUCAGAUUUUGCCAAGAUUAUUGGCAAUACAGAGAAUCUUGUGAGGGAAUUGCUAGCUGUUCCCAACAACUACAAGGUGAUCUUUGUACAAGGAGGUGGGUCUGGCCAGUUCAGUGCUGUCCCCUUAAAUCUGAUUGGCCUGAAAGCUGGAAGGAGUGCUGACUACGUGGUGACCGGAGCUUGGUCAGCUAAGGCUGCGGAAGAAGCCAAGAAGUUUGGAACGGUGAACAUUGUCCACCCUAAACUUGGAAGUUACACAAAAAUUCCAGACCCAAGCACCUGGAACCUCAACCCGGACGCCUCCUAUGUAUACUUCUGUGCAAACGAGACUGUGCACGGGGUGGAGUUUGACUUCGUACCUGACGUCAAGGGAGCGGUGCUGGUCUGUGACAUGUCCUCAAACUUCUUAUCCAGGCCGGUGGAUGUUUCCAAGUUUGGUGUGAUUUUCGCUGGUGCUCAGAAGAAUGUUGGCUCUGCCGGGGUGACGGUGGUGAUUGUCCGGGAUGACCUGCUGGGGUUCUCGCUCAGAGAGUGCCCAUCAGUCCUUGACUACAAAGUGCAGGCUGGGAACAACUCUUUGUAUAACACACCUCCGUGCUUCAGCAUCUACGUCAUGGGCAUGGUCCUGGAAUGGAUCAAGAACAACGGCGGGGCCGCAGCCAUGGAGAAGCUCAGCUCCAUCAAAUCCCAAAUGAUUUAUGAGAUCAUUGAUAAUUCUCAAGGAUUUUAUGUAUGCCCAGUGGAGCGCCAGAAUAGAAGCAGGAUGAACAUCCCAUUUCGCAUUGGCAACGCCAAAGGAGACGAAGCUUUGGAAAAGCGGUUUCUUGACAAGGCGGUAGAACUCAACAUGAUCUCCUUGAAGGGGCACAGGUCAGUGGGAGGCAUUCGUGCCUCUCUGUAUAACGCUGUCACAACCGAAGACGUUGAGAAGCUGGCGGCCUUCAUGAAGAAUUUCUUGGAGAUGCAUCAGCUGUGA
modifications: N1-methylpseudouridine
In the case of B1, the “location of the increase in single color CMs in the heart” value (cardiomyocytes (CM) [1]; 1-month post-MI) is reported as “mainly in the infarct border zone”, the “% single color (green or red positive) CMs compared to total labeled CMs” value (cardiomyocytes (CM) [1]; 1-month post-MI, compared to Luc modRNA) is reported as “increased” and the “nucleation of the majority of single color CMs” value (cardiomyocytes (CM) [1]; 28 days post-MI) is reported as “mononucleated”. For the same molecule, the “CM cell cycle inhibition under YAP1 inhibition” value (cardiomyocytes (CM) [2]; PSAT1 modRNA plus AAV9-YAP1-shRNA, compared to controls, significantly lower rate than PSAT1 modRNA alone) was “partially reversed”, the “CMs positive for Aurora B” value (cardiomyocytes (CM) [2]; compared to Luc modRNA) was “significant increase” and the “CMs positive for BrdU (DNA synthesis)” value (cardiomyocytes (CM) [2]; compared to Luc modRNA) was “significant increase”. The “CMs positive for pH3” value (cardiomyocytes (CM) [2]; compared to Luc modRNA) was “significant increase”.
